Substrate in series [1]: O=C(O)[C@H]1O[C@@H](Oc2ccc([N+](=O)[O-])cc2)[C@H](O)[C@@H](O)[C@@H]1O
As to the kind of experiment: purified protein, by the assay type. The note with it: other: pNPG as substrate.

Substrate in series [2]: O=C(O)[C@H]1O[C@@H](Oc2ccc([N+](=O)[O-])cc2)[C@H](O)[C@@H](O)[C@@H]1O
As to the kind of experiment: purified protein, by the assay type. The note with it: other: pNPG as substrate, optimal pH 6.5, apparent value estimated at low pNPG concentrations, 37.0 °C. The series is classed as biochemical, Ruminococcus gnavus.

Values joined by “and” are separate entries in the source; they are usually repeats but may differ in a detail not shown here. Equal values may be shown once. Marks after values point to notes of the source that are not given here.

B1: Streptococcus agalactiae GUS (SaGUS) (Streptococcus agalactiae 2603V/R) (protein)
chain: MLYPLLTKTRNTYDLGGIWNFKLGEHNPNELLPSDEVMVIPTSFNDLMVSKEKRDYIGDFWYEKVIEVPKVSEDEEMVLRFGSVTHQAKIYVDGVLVGEHKGGFTPFEVLVPECKYNNEKIKVSICANNVLDYTTLPVGNYSEIIQEDGSIKKKVRENFDFFNYAGVHRPLKLMIRPKNHIFDITITSRLSDDLQSADLHFLVETNQKVDEVRISVFDEDNKLVGETKDSRLFLSDVHLWEVLNAYLYTARVEIFVDNQLQDVYEENFGLREIEVTNGQFLLNRKPIYFKGFGKHEDTFINGRGLNEAANLMDLNLLKDMGANSFRTSHYPYSEEMMRLADRMGVLVIDEVPAVGLFQNFNASLDLSPKDNGTWNLMQTKAAHEQAIQELVKRDKNHPSVVMWVVANEPASHEAGAHDYFEPLVKLYKDLDPQKRPVTLVNILMATPDRDQVMDLVDVVCLNRYYGWYVDHGDLTNAEVGIRKELLEWQDKFPDKPIIITEYGADTLPGLHSTWNIPYTEEFQCDFYEMSHRVFDGIPNLVGEQVWNFADFETNLMILRVQGNHKGLFSRNRQPKQVVKEFKKRWMTIPHYHNKKNSVK
As for B1, in series [1] (optimal pH 6.5, 37 °C), the Michaelis constant (Km) amounted to 170 ± 10 µM; the kcat is 120 s⁻¹ and 122 s⁻¹; the kcat/Km stood at 720000 ± 30000 M⁻¹ s⁻¹.

B2: Bacteroides uniformis GUS (BuGUS) (Bacteroides uniformis str. 3978 T3 ii) (protein)
chain: QRQTQTINDSWKFLKGECTAAADSAFDDSKWTSIHLPHTWNTDAYTEKDYYRGTGWYRRQLTLPQGWKEKQIILRLDAAGKSATIYINGKNVGEHAGGYTACSFNITPFLSFDTPNTLAVCVDNARQDIAPISGDFTFFGGIYRDVWLTAVPNQHFNLTNHGSDGLFISTPQVSEEQATLSIRGEVKNDAPEKATLELTHTIYRPDGTLLQTLKKNIQLKAGETYAFSNEATPVLKPELWTPETPRLYRVETTLRNRKTKTLLDQSNHYTAFRWFRFDGDEGFFLNGKPYKLRGICRHQDQKPIGPALTDEMHRRDFLLMKEMGANFIRISHYPQDDALLEMCDKLGMLAWEEIPIIDIVPNTPGYGDNCERNLREMIRQHYNHPSIITWGYMNEILLVTQRKYKTEAELKPVLERTLALANRLERVLKEEDSTRISTMAFHGSNSYNETGLSKITDIVGWNLYQGWYGGDLTGFEKFLAQQHQNHPTHPMIVSEYGAGSDKRLHSLHPRAFDFSIEYQQKYLEHYLPVLEDTPYICGGTHWNFIDFSSALRDESMPRINNKGLVYADRTPKDVYHYYQAAWRKDIPVLHIASRDWTDRAGVQQGNAPVYLPVKIYTNLSEVELFIDGISLGKQKTENYTATFEVPFSNRNPFLFAQGNYQGKTVQDGLRINFTPIPACLDANNLKGLELAVNVGSQCFFTSDESQLTWLPDQPYAAGSWGYIGGKEGTAQTEIQNTADGPLFQTLRNEIEGYRFDAPQGVYEIELLFTDIFRRNAGIAYQLDRNGQQENRESTFGISINGEVVEESLSPCKESGYFRALRKKYYITNDKEYIDIRFHSTSGTCFLNGIKLRNIY
Turning to B2, in series [1] (optimal pH 5.5, 37 °C), the Michaelis-Menten constant (Km) was determined as 540 ± 60 µM, the kcat is 37 ± 2 s⁻¹ and the kcat/Km was 71000 ± 6000 M⁻¹ s⁻¹.

B3: Bacteroides dorei GUS (BdGUS) (Phocaeicola dorei CL02T12C06) (protein)
chain: SEISITDSWKYKAENDERFSSMDWNDSDWVTVDLPHTWNAGDVIDEQRGYRRGISWYRKKLFIPSEARDKKITLRFDGVASKADVYLNGKLLKTHLGAYTAFGVDITDICEVGKENLLAVKVDNSSSLGEILPPVSGDFSIFGGIYRRVFLQWTEKVHFVTEPYAAVPVRIQTPEVSVSEASMQIVAFLKNDFTDTKHVHVNVFLCDEMNRIVKEKQLKLKLIPGRKYPISTSVGRIENPHLWSPELPYLYTVKVQVCDAKNGEMYQEVISPVGFRWFSVDKTGFYLNGKYLKLRGAARHQDYAGLGTAIPVEMNRRDMRLLKEMGANFVRISHYPQDPEIYRACDELGLIVWSEICVVNEVRKNAAFAHNCKEMLKEMILQNYNHPSVVLWGAMNELWDYHKQAIALARELEALKKELDPYRLSCVAFHAFTWEKPYTQSSKEMFSISDVNGVNVYESWYQGDSATIAPMFDKFCSYSTAKPRFLSEFGAGSDERIHSYTPRTFDFTPEFQLDFNRRYINEMEKRPDYIGYSIWNLVDFQVDGRGDSKPNLNQKGMLTEDRRKKEIYYYCQARWSDIPMIHIAGADWTKRVEICDDSINVRKISVFSNQKTVELIHNGKSLGVREVVNGEAVFAVPFINGENLLDARSGALSDRLKIQMKLLSSRLTDSDVLLDGLCINLGQEHCYFIDPQLQEIWIPDKPYTKGSWGYMDGKPFNSWPGSSHDGVRYGVGADIKNTFLEPLFQTFLIGTTCYRLDVPDGVYEIGFYFTEPFSKDERKNIVRTGVSAEGQRVFDVSVNGEKLIDSLNLADSYGEQTAVVKTLVVNVRNHEGLEILLSPQKGQGVISGLKVKKIR
Turning to B3, in series [1] (optimal pH 6.0, 37 °C), the Michaelis constant (Km) stood at 1400 ± 100 µM, the kcat was determined as 7.5 ± 0.4 s⁻¹ and the kcat/Km stood at 5200 ± 500 M⁻¹ s⁻¹.

B4: Faecalibacterium prausnitzii GUS (FpGUS) (Faecalibacterium duncaniae) (protein)
chain: MNRSLLYPRATTTRRLIGLDGMWRFSFDPESKGVEAGWALDLPSSLSMPVPASFCDLFTDKASREYCGDFWYETSFFVPAEWSGWDIVLRFGSVTHRARVFVNGVEVAQHEGGFLPFDATVTNIVRYNQFNKLSVLANNELSETMLPAGTTCTLADGRKIAAPYFDFYNYAGIHRPVWLMALPKERVLDYSTRYRLTETGAEIDYTVSTNGPHPVTVELYDGTTRVAESSGTTGTLVVKNARLWNVHAAYLYDLVIRIHEGSAVVDEYLDRIGIRTFEIRHGRFLLNGSPVYLRGFGRHEDADIRGRGLDLPTVKRDFELMKWIGANCFRTSHYPYAEEIYQMADEEGFLIIDEVPAVGFMQSTANFLAANQGNGRQQGFFEKETTPALLKNHKAALTDMIDRDKNHPSVIAWSLLNEPQCTSAGTEEYFKPLFELARRLDPQKRPRTYTVLMTSLPDTSKGQRFADFVSLNRYYGWYVLGGAGLADAEAAFHHEMDGWAKVLHGRPLIFTEYGTDNLSGAHKLPSVMWSAEYQNEYLEMTHAVFDHYDFVQGELVWNFADFQTTEGILRVDGNKKGIFTRQRQPKDAAYLFRKRWTTLPVDFKKRKK
Consider B4, for which, in series [1] (optimal pH 6.0, 37 °C), the Km was 2200 ± 300 µM, the catalytic constant (kcat) came out at 58 ± 4 s⁻¹ and the kcat/Km is 27000 ± 2000 M⁻¹ s⁻¹.

B5: Eubacterium eligens GUS (EeGUS) (Lachnospira eligens ATCC 27750) (protein)
chain: MLYPVLTQSRLLSDLSGVWDFKLDNGKGFEEKWYEKPLKDADTMPVPASYNDLKEGTDFRDHYGWVFYQRNISVPEYVKSQRIVLRCAAVTHYAMIYLNGKLICEHKGGFLPFEVELNDDLQDGDNLLTIAVNNVIDYTTLPVGGKANMMSGMMGGMGAGASDKPQNNPNFDFFNYCGITRPVKIYTTPETYINDITVTADIDFTKEEPSAVLNYNVEIKGKDYNNITCKVELFDEEGTKLSETEGSEGTFEISNVRLWQPLNAYLYKIKVTAGQDVYTLPYGVRSVRVDGTKFLINEKPFYFKGYGKHEDTFPNGRGINLPMNTKDISIMKWQHANSFRTSHYPYSEEMMRLCDEEGIVVIDETTAVGVNLQFGGGANFGGERIGTFDKEHGVQTQEHHKDVIRDLISRDKNHACVVMWSIANEPDSAAEGAYDYFKPLYDLARELDPQKRPCTLVSVQGTTADTDCSSQLSDVICLNRYYGWYFGGPDLEVSEIGLRKELSDWGKLGKPVMFTEYGADTVSGLHDTTSVMYTEEYQVEYYEMNNKVFDEFDFVVGEQAWNFADFATSQSLLRVQGNKKGLFTRDRKPKMVAHYFRNRWSTIPEFGYKTK
As to B5, in series [1] (optimal pH 6.5, 37 °C), the Michaelis constant (Km) came to 223 ± 8 µM, the catalytic constant (kcat) stood at 120 ± 8 s⁻¹ and the kcat/Km amounted to 540000 ± 20000 M⁻¹ s⁻¹.

B6: Ruminococcus gnavus GUS (RgGUS) (Mediterraneibacter gnavus) (protein)
chain: MLEYSELYPIQNGHRMMQSLDGMWKFQFDPEEIGEKSGWENGLPAPVSMPVPSSFADFFTDHKERDYCGDFWYETEFYLPAEWRNKKIWLRFGSITHRGTVYCNGMEITSHEGGFLPVLADISTVAKPGQVNQVVVKINNELNETSLPCGATKILNNGRKLAKPYFDFFNYSGLQRSVWVIALPEESVKDYSVDYELCGTDALVKYEVVTTGEHPVIVRLLDAEGELVAETEGKEGILQVANAHLWEVRNAYLYQIVILITDGNGVLDEYREKIGIRTVRIEGTQILLNDRPVYLKGFGKHEDFSILGRGFHWGIVKRDFECLKWTNANCFRTSHYPYAEEWYQFADEEGFLIIDEVPAVGMMRSTRNFVAAGSGNYTYFFEALTVPELLKSHIADTEEMITRDKNHPSVIAWSLFNEPETITDYAYEYFKEVFAAAETYDFQSRPMTGAFEKNSKPELCKCYPLCDFICLNRYYGWYISGGPEIEEAEELFRDEMDRWKAKELNVPFVFTEFGTDTMAGLHKLPSIMWSEEYQKEYLEMNFRVFDSYEFVQGELAWNFADFQTTEGIMRVDGNHKGVFTRDRQPKAAAVVFKDRWEKKNELF
Regarding B6, in series [2], the Michaelis constant (Km) is on record as 1.4 ± 0.2^b mM, the kcat is 2.8 ± 0.3 s⁻¹ and the kcat/Km was 2000 ± 100 M⁻¹ s⁻¹.

B7: Lactobacillus rhamnosus GUS (LrGUS) (Lacticaseibacillus rhamnosus) (protein)
chain: METSLLYPVTNDQRTDQKLDGLWQFKFDEAGEGEKSGWETGFHDGVSMPVPASFNDFFTDKASREYTGDFWYSRNFFVPSAAKGKALFLRFDAVTHRATIFVNGKEIRTHEGGFLPFAADISEAVKYGAENTVVVKGNNELSREALPAGDTITLRNGKKMVRPFFDFYNYSGLNRSVHLLSLPQERVLDYTTTFALAGNDATVNYTVETNGDAPVTVSLADADGQVVATAQGKQGALQVQNAHLWQVRNAYLYTLTIQLGDDTQTPLDTYTDRIGIRTIKISGTDILVNDKPIYLKGFGRHEDSPFAGRAFDLNVEKKDFALMKWIGANSFRTSHYPYDEQVYKIADEEGFLLTDEVPAVGFKMAAAAFLGGLNQSFFKGPWLKKLHERHIDQIRDLIKRDKNHPSVLAWSLFNEPDTIDENAVPYFKQIFDESKDLDPQGRPRTFTLSEDDTIETSKVLDFPDFYMLNRYPGWYHFGGYQISDGEAGLRDEMDKWQKAGVKKPVVFTEFGADTEAGLHKLPSVMWTEEYQVEVLKMFSRVFDDYDFIKGEQVWNLADFQTVEGNMRVNGNKKGIFTRDRQPKAAAFFYHDRWNKLPLDYKAK
As to B7, in series [1] (optimal pH 4.5, 37 °C), the Michaelis-Menten constant (Km) was found to be 1500 ± 100 µM, the catalytic constant (kcat) came out at 10 ± 0.7 s⁻¹ and the kcat/Km was found to be 6700 ± 300 M⁻¹ s⁻¹.

Values taken from publication PMC6351562, “Structure, function, and inhibition of drug reactivating human gut microbial β-glucuronidases” (Scientific Reports, 2019).
